According to patent publication US20180186871A1 (SINGAPORE HEALTH SERVICES PTE, published 2018):
Substitutions are numbered along the chain they refer to.

T1: human IL-11 (human, UniProt P20809 22-199)
T1 sequence (looked up): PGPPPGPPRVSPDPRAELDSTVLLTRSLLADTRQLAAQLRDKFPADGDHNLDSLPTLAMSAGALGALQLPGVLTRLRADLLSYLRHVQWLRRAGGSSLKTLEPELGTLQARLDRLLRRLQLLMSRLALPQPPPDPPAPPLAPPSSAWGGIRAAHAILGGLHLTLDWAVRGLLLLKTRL

B1: YU100-H06 (scFv, not shown: a dimerising Fc or GST)
scFv: QVQLVESGGGVVQPGRSLRLSCAASGFTFSSYGMHWVRQAPGKGLEWVAVISYDGSNKYYADSVKGRFTISRDNSKNTLYLQMNSLRAEDTAVYYCAKIGATDPLDYWGQGTLVTVSSGSASAPKLEEGEFSEARIQSALTQPRSVSGSPGQSVTISCTGTSSDVGGYNYVSWYQQHPGKAPKLMIYDVTKRPSGVPDRFSGSKSGNTASLTISGLQAEDEADYYCSSYAGSYTWVFGGGTKLTVL
B2: YU100-E12 (scFv)
scFv: QVQLVESGGGVVQPGRSLRLSCAASGFTFSSYGMHWVRQAPGKGLEWVAVISYDGSNKYYADSVKGRFTISRDNSKNTLYLQMNSLRAEDTAVYYCAKIGATDPLDYWGQGTLVTVSSGSASAPKLEEGEFSEARVQSALTQPASVSGSPGQSITISCTGTSSDVGGYNYVSWYQQHPGTAPKLMIYDVSNRPSGVSNRFSGSKSGNTASLTISGLQAEDEADYYCSSYTSSTTWVFGGGTKLTVL
B3: YU100-B07 (scFv)
scFv: B1 scFv with I136V, I156M, S163R, Q176H, T190S, G215E, S227C
B4: YU100-B03 (scFv)
scFv: QVQLVQSGGGVVQPGRSLRLSCAASGFTFSSYGMHWVRQAPGKGLEWVAVISYDGSNKYYADSVKGRFTISRDNSKNTLYLQMNSLRAEDTAVYYCAKIGATDPLDYWGQGTLVTVSSGSASAPKLEEGEFSEARVQSVLTQPRSVSGSPGRSVTISCTGTSSDVGGYNYVSWYQQHPGKAPKLTLYDVVKRPSGVPDRYSGSKSGNTASLTISGLQAEDEADYYCCSYAGGYTWVFGGGTKVTVV
B5: YU100-G01 (scFv)
scFv: B1 scFv with E6Q, I136V, G148A, G167A, I186L, T190N, G215R, S227C
B6: YU100-E07 (scFv)
scFv: B1 scFv with V5Q, K58R, T69A, I136V, N169D, K183E, P197A, S227C, S232R
B7: YU100-A11 (scFv)
scFv: B1 scFv with Q1E, V5Q, E6Q, I136V, T190S, S227C
B8: YU100-G09 (scFv)
scFv: B1 scFv with Q1E, I136V, S162I, D223G
B9: YU112-B06 (scFv, not shown: a dimerising Fc or GST)
scFv: B2 scFv with T180K, S214F, T233S, T234S
B10: YU100-H11 (scFv, not shown: a dimerising Fc or GST)
scFv: B2 scFv with E6Q, T180K, S227C, T230A, S231G, T233Y
B11: YU112-D08 (scFv)
scFv: B1 scFv with K65E, I136V, S162I, D223G, K242E
B12: YU100-E10 (scFv)
scFv: B1 scFv with E6Q, I136V, Y187F, T190S, K191Q, G202A, S227C
B13: YU112-G06 (scFv)
scFv: B1 scFv with V5Q, I136V, S162I, P193R, D223G, S232G, K242E
B14: YU100-B01 (scFv)
scFv: B1 scFv with E6Q, I136V, S162N, S163T, G167A, H177Y, M185I, T190S, S227C, T234S
B15: YU100-A12 (scFv)
scFv: B1 scFv with I136V, Q137L, S138P, A139V, T190S, N207D
B16: YU100-F02 (scFv)
scFv: B1 scFv with Q1E, I136V, E219D, S227C, V236I
B17: YU100-H05 (scFv)
scFv: B1 scFv with I136V, S138A, A139V, V154I, S162G, D164N, K180Q, T190S, S227C, S232T
B18: YU112-A07 (scFv, not shown: a dimerising Fc or GST)
scFv: B1 scFv with A61T, I136V, S162I, D223G, K242E
B19: YU100-B06 (scFv)
scFv: B1 scFv with G66S, I136V, R144A, V154I, T190S, S227N
B20: YU100-E11 (scFv)
scFv: QVQLVESGGGVVQPGRSLRLSCAASGFTFSSYGMHWVRQAPGKGLEWVAVISYDGSNKYYADSVKGRFTISRDNSKNTLYLQMNSLRAEDTAVYYCARIMGYDYGDYDVVDYWGQGTLVTVSSGSASAPKLEEGEFSEARVQSALTQPRSVSGSPGQSVTISCTGTSSDVGGYNYVSWYQQHPGKAPKLMIYDVSKRPSGVPDRFSGSKSGNTASLTISGLQAEDEADYYCCSYAGSYTWVFGGGTKLTVL

Target: T1, human IL-11
Assay: cell-based or functional assay
Also: test concentration or dose not given here.

Row | MMP2 production (ng/ml), TGFB1-stimulated human atrial fibroblasts, Experiment 1 (NEG 42.7, POS 70.2) [ng/mL] | MMP2 production (ng/ml), TGFB1-stimulated human atrial fibroblasts, Experiment 2 (NEG 36.2, POS 62.3) [ng/mL] | Binder
1 | 52.3 | 43.9 | B1
2 | 56 | 47.9 | B2
3 | 55.9 | 47.4 | B3
4 | 47.3 | 46.8 | B4
5 | 56.6 | 49.7 | B5
6 | 52.1 | 46.5 | B6
7 | 51.6 | 45.7 | B7
8 | 59.9 | 47.5 | B8
9 | 49.7 | 43.9 | B9
10 | 53.7 | 45.5 | B10
11 | 50.3 | 42.5 | B11
12 | 56.1 | 47 | B12
13 | 55 | 47.8 | B13
14 | 52.5 | 40 | B14
15 | 59.5 | 50.4 | B15
16 | 51.2 | 43.5 | B16
17 | 57.1 | 47.8 | B17
18 | 50.7 | 45 | B18
19 | 47.6 | 49.6 | B19
20 | 49.1 | 41.9 | B20
